Laboratory results reported in patent publication US20050277575A1, “Therapeutic compositions and methods for treating diseases that involve angiogenesis” (priority 2004, published 2005).
pEC50: −log10 of the molar value.

Key:
[1] = test system: Human cerebral endothelial cells (HCEC); assay: Capillary tube formation in Matrigel, S100A4 induced angiogenesis; type: cell-based; conditions: primary HCEC grown in Matrigel
Description: Human cerebral endothelial cells (HCEC) were isolated using previously described protocols (Stanimirovic, D., P. Morley, et al. (1996). “Angiotensin II-induced fluid phase endocytosis in human cerebromicrovascular endothelial cells is regulated by the inositol-phosphate signaling pathway.” J Cell Physiol 169(3): 455-67.). Purity of HCEC cultures generated by these procedures was routinely assessed by the immunocytochemical staining for Factor VIII-related antigen and the lack of staining for smooth muscle β-actin, and is estimated to be >95%. The morphological, phenotypic, biochemical and functional characteristics of these HCEC cultures have been described in detail previously (Muruganandam, A., L. M Herx, et al. (1997). “Development of immortalized human cerebromicrovascular endothelial cell line as an in vitro model of the human blood-brain barrier.” Faseb J 11(13): 1187-97).
HCEC were seeded (8×10^4 cells) on a semi-solid basement membrane matrix, Matrigel™ (Collaborative Biomedical Products, Bedford, Mass.)-coated 24-well plates and exposed to serum-free media containing various treatments. […] Confocal apertures for each recorded wavelength were adjusted to a full width half maximum of 20 μm. […] Eight to 32 individual optical sections were collected and the average was calculated. […]

annexin II = target: T1, annexin II (Homo sapiens, UniProt P07355); assay: Immunoprecipitation analysis of S100A4-annexin II complex formation; type: binding; conditions: monomer and aggregated forms, in Ca2+ or EGTA
T1 construct: GST (N); made in house; host or cells: E. coli ER2507
Experimental: S100A4 and annexin II proteins, both at the concentrations of 1.5 mg/ml, were pre-incubated overnight at 37° C. in TBS containing either 5 mM CaCl2, or 5 mM EGTA.
The formation of the S100A4-annexin II complex was analyzed by immunoprecipitation with an anti-S100A4 rabbit polyclonal antibody. To this end, the reaction mixture was incubated with the antibody (10 μg/ml) for 1 h at 37° C. and then precipitated by adding protein G-sepharose beads (Affi-Gel; Bio-Rad Laboratories, Hercules, Calif.) and incubating the resulted mixture for 1 h at room temperature. After that the beads were washed 3 times by 500 ul of TBS, boiled in Laemmli sample buffer for 5 min, and then loaded on SDS-PAAG. The proteins were then electro-transferred to a nitrocellulose membrane. The Western blot analysis was performed using anti-Annexin II antibody (BD Pharmingen) used at 1:5000 dilution and sheep anti-mouse antibody conjugated to horseradish peroxidase (Amersham Pharmacia Biotech, Piscataway, N.J.) used at 1:10000 dilution, followed visualization of the Annexin II bands by chemiluminescence.
However, the complex formation is more efficient in the case when the aggregated S100A4 are used. Additionally, the interaction between S100A4 (both monomer and oligomer) and annexin II is more efficient in the absence of Ca2+ (EGTA conditions) compared to that observed in the presence of Ca2+.

[2] = target: T2, t-PA-mediated plasminogen activation (Homo sapiens, UniProt P00750); assay: t-PA-mediated plasminogen conversion kinetics with and without S100A4 (Example 12); type: biochemical; conditions: for acceleration of plasmin formation (K units): 1 μM S100A4, 100 nM plasminogen
T2 construct: purchased Calbiochem
Experimental: The effects of peptide SEQ ID 6, peptide SEQ ID 38 and chimera SEQ ID 39 on acceleration oft-PA-mediated conversion of plasminogen to plasmin induced by S100A4 were measured. The kinetics of t-PA-mediated plasminogen activation were determined by measuring the amidolytic activity of plasmin formed during activation of plasminogen. All the experiments were done in 100 μl volume in 96-well plates in triplicates. Glu-plasminogen (Calbiochem) at the concentration of 100 nM was preincubated at 25° C. for 1 h in the presence or absence of 1 μM recombinant S100A4 in a buffer consisting of 50 mM Tris-HCl, pH 7.4, 100 mM NaCl and 5 mM CaCl2 or 5 mM EGTA. In some experiments, different concentrations of peptides or chimera were preincubated together with proteins. The reaction was initiated by addition of 5 nM t-PA (Calbiochem) and 125 μM chromogenic plasmin substrate, Chromozym PL (Roche). The reactions were monitored at 405 nm for 1.5 h in a SPECTRAmax PLUS^384 microplate spectrophotometer (Molecular Devices) under control of the SOFTmax PRO kinetic program (Molecular Devices). The initial rates of plasmin generation, during the first 10-15 min, were calculated using linear regression analysis of plots of A405 nm versus time 2. The initial rates of plasmin generation were reported in units (K) of A405 nm/min^2×10^3. […] The titration data were analyzed with the four-parameter logistic equation K=(A−D)/(1+(x/C)^B)D. If A, asymptotic minimum, =0, this equation is converted to the Michaelis-Menten equation K=D/(1+(C/[S])^B), where [S] is substrate concentration, D=Vmax, C=Km, and B is the Hill coefficient.
The addition of S100A4 to basal reaction (t-PA plus plasminogen) produced a significant increase in the plasminogen conversion rate. […] The stimulation of the plasminogen conversion by S100A4 was concentration-dependent with the half-maximal effect at 2.4 μM.
The kinetic parameters of t-PA-mediated plasminogen conversion were evaluated in the presence and absence of S100A4 as a function of plasminogen concentrations ranging from 3 nM to 3 μM.

T2 sequence (P00750 36-562): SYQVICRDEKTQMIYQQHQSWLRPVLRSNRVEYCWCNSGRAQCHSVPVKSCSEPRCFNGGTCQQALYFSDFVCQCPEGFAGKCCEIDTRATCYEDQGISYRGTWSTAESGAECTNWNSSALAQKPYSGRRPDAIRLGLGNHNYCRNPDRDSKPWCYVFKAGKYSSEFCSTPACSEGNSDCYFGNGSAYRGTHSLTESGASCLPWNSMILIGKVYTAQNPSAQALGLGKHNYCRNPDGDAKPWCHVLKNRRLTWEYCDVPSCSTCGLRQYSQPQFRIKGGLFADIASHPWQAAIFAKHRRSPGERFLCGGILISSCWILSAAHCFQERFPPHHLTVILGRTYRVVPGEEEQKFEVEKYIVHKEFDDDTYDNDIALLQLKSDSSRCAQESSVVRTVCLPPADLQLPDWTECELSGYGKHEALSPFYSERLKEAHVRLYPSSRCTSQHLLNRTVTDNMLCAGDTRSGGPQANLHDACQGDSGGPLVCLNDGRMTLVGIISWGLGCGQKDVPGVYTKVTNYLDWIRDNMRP
T1 sequence (P07355 2-339 V98L): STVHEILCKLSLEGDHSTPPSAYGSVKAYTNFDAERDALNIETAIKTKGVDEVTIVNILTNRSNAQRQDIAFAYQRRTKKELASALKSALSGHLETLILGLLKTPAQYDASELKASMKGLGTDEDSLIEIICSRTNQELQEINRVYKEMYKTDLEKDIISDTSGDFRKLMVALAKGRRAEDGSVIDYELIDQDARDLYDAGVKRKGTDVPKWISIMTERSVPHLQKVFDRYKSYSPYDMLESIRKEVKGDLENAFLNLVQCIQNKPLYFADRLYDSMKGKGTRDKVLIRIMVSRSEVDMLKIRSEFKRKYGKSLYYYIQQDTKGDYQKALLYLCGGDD
T1 sequence (P26447 whole entry partner): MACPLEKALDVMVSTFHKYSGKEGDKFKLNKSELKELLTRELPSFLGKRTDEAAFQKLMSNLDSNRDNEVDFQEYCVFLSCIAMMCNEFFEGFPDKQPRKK

For “S100A4: recombinant human S100A4 protein cloned from human placenta total RNA, Ca-binding protein of S100 family”, the “concentration of S100A4 from which angiogenesis is induced” value [1] was at least 10 nM, the “complex formation with annexin II” value (annexin II) was “capable of complex formation with annexin II” and the pEC50 ([2]; concentration-dependent stimulation, read-out: half-maximal effect of stimulation of plasminogen conversion) was 5.62. The “plasmin generation in the absence of t-PA” value ([2]; no t-PA) was “plasmin generation did not take place”, the Km ([2]; plasminogen 3 nM to 3 μM, read-out: Km of the t-PA-mediated plasminogen conversion) was 0.059 µM and the “acceleration of plasmin formation (K units)” value ([2]; presence of Ca2+) was 15 fold. The “increase in the catalytic efficiency (Vmax/Km) of t-PA” value ([2]; presence of EGTA) was 7.6 fold, the “acceleration of plasmin formation (K units)” value ([2]; presence of EGTA) was 11 fold and the “increase in the catalytic efficiency (Vmax/Km) of t-PA” value ([2]; presence of calcium) was 10 fold.
